One data set addresses T1, CasX 438 (in cells) (Planctomycetes).
T1 chain: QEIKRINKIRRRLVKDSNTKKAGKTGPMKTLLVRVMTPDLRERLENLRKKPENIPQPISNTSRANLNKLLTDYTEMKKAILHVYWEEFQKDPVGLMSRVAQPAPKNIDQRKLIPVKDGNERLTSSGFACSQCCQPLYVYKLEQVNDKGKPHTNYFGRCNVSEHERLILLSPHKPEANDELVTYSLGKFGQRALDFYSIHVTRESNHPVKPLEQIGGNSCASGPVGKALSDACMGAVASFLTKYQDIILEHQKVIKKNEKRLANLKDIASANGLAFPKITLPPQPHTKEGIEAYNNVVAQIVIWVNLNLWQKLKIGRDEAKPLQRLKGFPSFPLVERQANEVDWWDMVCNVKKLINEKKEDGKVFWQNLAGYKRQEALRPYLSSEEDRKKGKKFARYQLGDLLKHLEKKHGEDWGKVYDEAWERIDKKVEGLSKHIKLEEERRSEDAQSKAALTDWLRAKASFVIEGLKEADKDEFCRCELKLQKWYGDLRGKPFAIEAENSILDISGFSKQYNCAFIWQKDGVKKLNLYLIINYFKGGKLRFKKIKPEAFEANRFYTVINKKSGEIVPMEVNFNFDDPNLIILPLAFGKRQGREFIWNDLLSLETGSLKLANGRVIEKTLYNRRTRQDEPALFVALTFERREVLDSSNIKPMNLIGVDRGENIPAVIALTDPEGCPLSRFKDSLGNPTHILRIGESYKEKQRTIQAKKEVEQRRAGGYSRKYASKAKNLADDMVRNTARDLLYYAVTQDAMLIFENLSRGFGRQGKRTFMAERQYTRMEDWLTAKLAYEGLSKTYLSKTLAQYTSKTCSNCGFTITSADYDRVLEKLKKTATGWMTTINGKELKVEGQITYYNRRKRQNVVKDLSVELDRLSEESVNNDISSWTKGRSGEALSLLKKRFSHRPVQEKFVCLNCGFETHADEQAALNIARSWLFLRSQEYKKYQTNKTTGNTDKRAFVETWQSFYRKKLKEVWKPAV
The data set is described as follows: cell_activity; lentiviral iGFP editing; TTC PAM.

A further data set deals with T2, CasX 488.
T2 chain: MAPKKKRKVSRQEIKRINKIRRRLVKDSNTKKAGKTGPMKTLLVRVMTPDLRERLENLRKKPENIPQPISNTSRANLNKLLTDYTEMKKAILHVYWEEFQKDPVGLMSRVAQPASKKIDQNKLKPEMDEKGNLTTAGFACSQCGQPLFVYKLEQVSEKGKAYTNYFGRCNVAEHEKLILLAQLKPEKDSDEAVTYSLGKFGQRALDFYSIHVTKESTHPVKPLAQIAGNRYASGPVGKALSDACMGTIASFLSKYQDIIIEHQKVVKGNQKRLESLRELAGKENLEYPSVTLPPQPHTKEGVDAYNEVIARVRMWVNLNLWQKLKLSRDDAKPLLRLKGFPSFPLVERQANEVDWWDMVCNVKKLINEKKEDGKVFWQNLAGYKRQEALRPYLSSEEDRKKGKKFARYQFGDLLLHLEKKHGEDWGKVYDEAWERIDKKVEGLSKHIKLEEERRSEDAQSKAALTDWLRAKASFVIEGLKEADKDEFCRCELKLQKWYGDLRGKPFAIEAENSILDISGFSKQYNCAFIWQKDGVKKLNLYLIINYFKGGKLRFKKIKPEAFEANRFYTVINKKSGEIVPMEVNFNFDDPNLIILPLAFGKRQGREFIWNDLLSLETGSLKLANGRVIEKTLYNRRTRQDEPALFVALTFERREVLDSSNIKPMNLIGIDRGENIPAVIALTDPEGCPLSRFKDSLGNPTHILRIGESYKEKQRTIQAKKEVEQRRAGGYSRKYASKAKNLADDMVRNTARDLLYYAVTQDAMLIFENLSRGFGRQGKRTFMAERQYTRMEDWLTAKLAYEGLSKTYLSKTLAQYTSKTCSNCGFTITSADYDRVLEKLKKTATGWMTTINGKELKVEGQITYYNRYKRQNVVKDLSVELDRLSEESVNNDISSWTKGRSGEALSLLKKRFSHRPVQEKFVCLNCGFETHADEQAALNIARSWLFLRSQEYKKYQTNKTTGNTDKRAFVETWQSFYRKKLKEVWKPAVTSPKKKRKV
The experiment in a line: cell_activity; lentiviral iGFP editing; TTC PAM.

For a further data set, the target named is T3, CasX 491.
T3 chain: T2 chain with F410L, I669V
The experiment in a line: cell_activity; lentiviral iGFP editing; TTC PAM.

The target in another data set is CasX 438 (Planctomycetes). The data set is described as follows: cleavage_in_vitro; kcleave; TTC PAM. Particulars: tags: N-terminal SV40 NLS, C-terminal NLS, TEV site and twin Strep tag; label: fluorescent. Here is the method:
(§1) In vitro cleavage assays were performed essentially as described in Example 19, using CasX 2 (SED ID NO:2), CasX 119, and CasX 438 complexed with single guide 174 with spacer 7.37 targeted against B2M. Fluorescently labeled dsDNA targets that would be complementary with a 7.37 spacer and either a ITC, CTC, CTC, or ATC PAM were used (The DNA sequences used to generate each dsDNA substrate are shown in Table 29. The PAM sequences for each are bolded. TS—target strand. NTS—Non-target strand). Target DNA was incubated with a 20-fold excess of the indicated RNP and the amount of cleaved target was determined at the indicated. time points. The monophasic fit of the combined replicates is shown. During the assay, samples were taken at 0.25, 0.5, 1, 2, 5, 10, 30, and 60 minutes. Gels were imaged with an Amersham Typhoon and quantified using the IQTL 8,2 software. Apparent first-order rate constants for non-target strand cleavage (kcleave) were determined for each Casx:sgRNA complex on each target. Rate constants for targets with non-TTC PAM were compared to the TIC PAM target to determine whether the relative preference for each PAM was altered for a given CasX variant. The results are shown in FIG. 73 (the monophasic fit of the combined replicates is shown) and Table 30. […]

The target of data set [1] is CasX 119 (L379R+A708K+[P793]) (Planctomycetes). The experiment in a line: cleavage_in_vitro; kcleave; TTC PAM. The note with it: tags: N-terminal SV40 NLS, C-terminal NLS, TEV site and twin Strep tag; label: fluorescent. Here is the method: as §1
CasX 119 (L379R+A708K+[P793]) (Planctomycetes), sequence (chain, as listed by the source L379R A708K L379R A708K): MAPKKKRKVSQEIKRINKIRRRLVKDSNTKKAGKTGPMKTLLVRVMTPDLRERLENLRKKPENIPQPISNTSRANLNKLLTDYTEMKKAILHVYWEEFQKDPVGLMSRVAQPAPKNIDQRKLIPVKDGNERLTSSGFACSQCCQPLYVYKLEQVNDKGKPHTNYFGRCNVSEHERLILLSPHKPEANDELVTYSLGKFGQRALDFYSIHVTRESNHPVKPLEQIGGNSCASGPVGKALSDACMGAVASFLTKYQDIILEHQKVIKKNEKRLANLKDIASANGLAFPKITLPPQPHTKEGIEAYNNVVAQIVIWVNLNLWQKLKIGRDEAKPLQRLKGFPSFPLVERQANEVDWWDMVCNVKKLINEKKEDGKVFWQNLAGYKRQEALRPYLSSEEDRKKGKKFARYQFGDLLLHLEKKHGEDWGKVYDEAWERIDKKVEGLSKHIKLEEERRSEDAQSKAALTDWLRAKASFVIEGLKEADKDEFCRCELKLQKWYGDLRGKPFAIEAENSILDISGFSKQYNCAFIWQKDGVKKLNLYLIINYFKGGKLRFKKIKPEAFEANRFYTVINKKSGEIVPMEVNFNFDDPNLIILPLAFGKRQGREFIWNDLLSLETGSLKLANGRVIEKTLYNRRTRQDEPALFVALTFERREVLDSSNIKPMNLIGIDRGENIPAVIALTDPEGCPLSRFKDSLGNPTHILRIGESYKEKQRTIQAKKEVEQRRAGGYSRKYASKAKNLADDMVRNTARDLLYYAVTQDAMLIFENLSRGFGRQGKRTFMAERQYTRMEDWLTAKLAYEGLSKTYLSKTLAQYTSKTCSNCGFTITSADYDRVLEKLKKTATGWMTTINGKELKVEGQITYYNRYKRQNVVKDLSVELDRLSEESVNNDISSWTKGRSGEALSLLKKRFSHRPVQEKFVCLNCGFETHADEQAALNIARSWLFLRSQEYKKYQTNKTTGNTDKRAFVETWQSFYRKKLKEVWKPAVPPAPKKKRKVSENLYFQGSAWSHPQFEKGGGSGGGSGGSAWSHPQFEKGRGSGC

Changes are numbered by the printed parent chain.

CasX 438 (Planctomycetes), sequence (chain, as listed by the source): as the sequence (chain, as listed by the source L379R A708K L379R A708K) above, with F408L, L413K, I667V, Y865R counted along it

B1: scaffold 174 + spacer 4.76 ; EGFP E6/4.76 target (ssRNA ; dsDNA)
RNA: ACUGGCGCUUUUAUCUGAUUACUUUGAGAGCCAUCACCAGCGACUAUGUCGUAGUGGGUAAAGCUCCCUCUUCGGAGGGAGCAUCAAAGUGUGGUCGGGGUAGCGGCUG
DNA 1: TGTGGTCGGGGTAGCGGCTG
DNA 2: CAGCCGCTACCCCGACCACA
For B1, the results for the binding signal in the data set with CasX 438 (in cells), with CasX 488 and in the data set with CasX 491 were 1.22 fold vs CasX 119, 1.41 fold vs CasX 119 and 1.55 fold vs CasX 119, respectively.

B2: sgRNA 174.7.37 ; 7.37 TTC PAM target (ssRNA ; dsDNA)
RNA: ACUGGCGCUUUUAUCUGAUUACUUUGAGAGCCAUCACCAGCGACUAUGUCGUAGUGGGUAAAGCUCCCUCUUCGGAGGGAGCAUCAAAGGGCCGAGAUGUCUCGCUCCG
DNA 1: TGAAGCTGACAGCATTCGGGCCGAGATGTCTCGCTCCGTGGCCTTAGCTGTGCTCGCGCT
DNA 2: AGCGCGAGCACAGCTAAGGCCACGGAGCGAGACATCTCGGCCCGAATGCTGTCAGCTTCA
As for B2, the activity is 4.94 min⁻¹ in the data set with CasX 438 and 8.33 min⁻¹ in data set [1].

B3: scaffold 174 + spacer 4.77 ; EGFP E7/4.77 target (ssRNA ; dsDNA)
RNA: ACUGGCGCUUUUAUCUGAUUACUUUGAGAGCCAUCACCAGCGACUAUGUCGUAGUGGGUAAAGCUCCCUCUUCGGAGGGAGCAUCAAAGUCAAGUCCGCCAUGCCCGAA
DNA 1: TCAAGTCCGCCATGCCCGAA
DNA 2: TTCGGGCATGGCGGACTTGA
On to B3, for which the binding signal in the data set with CasX 488 stood at 2.43 fold vs CasX 119; in the data set with CasX 491, 3.03 fold vs CasX 119.

Values taken from US20220220508, “ENGINEERED CASX SYSTEMS” (Scribe Therapeutics Inc., published 2022).
